From patent publication US20140004136A1 (CENTRE NATIONAL DE LA RECHERCHE SCIENTIFIQUE, published 2014)

Assays:
[1] = biological target: T1, murine major histocompatibility complex class II molecule I-A^k (murine, UniProt P01910 24-218; P06343 28-224, limits assumed); assay: competition with reference peptides on transfected fibroblasts, IL-2 secretion of T hybridoma E7E9
T1 construct: whole, on cells;extracellular; Expressed on transfected fibroblasts

[2] = biological target: T2, murine major histocompatibility complex class II molecule I-A^d (murine, UniProt P04228 24-218; P01921 28-226, limits assumed); assay: competition with reference peptides on transfected fibroblasts, IL-2 secretion of T hybridoma 26.2
T2 construct: whole, on cells;extracellular; Expressed on transfected fibroblasts
T2 sequence (MHC II alpha, looked up): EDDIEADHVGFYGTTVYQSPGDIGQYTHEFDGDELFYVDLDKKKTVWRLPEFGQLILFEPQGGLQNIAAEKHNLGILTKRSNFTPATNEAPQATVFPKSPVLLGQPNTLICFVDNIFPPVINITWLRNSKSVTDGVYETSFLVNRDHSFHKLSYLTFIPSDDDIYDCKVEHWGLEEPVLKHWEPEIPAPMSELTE
T2 sequence (MHC II beta, looked up): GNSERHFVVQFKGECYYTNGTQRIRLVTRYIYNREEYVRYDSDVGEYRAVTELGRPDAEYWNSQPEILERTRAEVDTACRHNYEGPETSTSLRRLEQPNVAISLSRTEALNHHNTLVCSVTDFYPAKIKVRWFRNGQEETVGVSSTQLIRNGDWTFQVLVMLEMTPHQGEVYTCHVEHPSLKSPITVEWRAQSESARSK

[3] = biological target: T3, murine major histocompatibility complex class II molecule I-E^d (murine, UniProt P01904 26-216; P01915 32-225, limits assumed); assay: competition with reference peptides on transfected fibroblasts, IL-2 secretion of T hybridoma 26.1
T3 construct: whole, on cells;extracellular; Expressed on transfected fibroblasts
T3 sequence (MHC II alpha, looked up): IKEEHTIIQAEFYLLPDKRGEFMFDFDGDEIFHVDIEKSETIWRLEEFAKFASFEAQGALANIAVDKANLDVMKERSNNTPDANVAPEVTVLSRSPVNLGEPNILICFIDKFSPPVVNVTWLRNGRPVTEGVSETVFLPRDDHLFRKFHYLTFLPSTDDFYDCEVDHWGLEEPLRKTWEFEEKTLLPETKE
T3 sequence (MHC II beta, looked up): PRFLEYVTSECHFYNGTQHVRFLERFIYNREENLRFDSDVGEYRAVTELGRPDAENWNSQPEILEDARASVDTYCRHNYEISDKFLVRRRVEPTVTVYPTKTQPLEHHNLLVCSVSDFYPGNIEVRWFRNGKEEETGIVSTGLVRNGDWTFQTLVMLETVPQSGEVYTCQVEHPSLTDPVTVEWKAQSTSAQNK

binding result [1]: binds
binding result [2]: binds
binding result [3]: binds
B1: 131-151 peptide of the U1-70K protein (RIHMVYSKRSGKPRGYAFIEY) (peptide)
peptide: RIHMVYSKRSGKPRGYAFIEY
notes: Synthetic peptide; also called parent peptide; non-phosphorylated peptide
